Experimental data published in patent US20030148264A1, “Phage displayed PDZ domain ligands” (GENENTECH, INC., priority 2001, published 2003).
Where no end group is shown, it is not given here.

How the values were obtained:
Caco-2 cells = assay: Peptide targeting in live Caco-2 cells (fluorescein coupled peptides, confocal microscopy); assay type: cell-based; details: polarised Caco-2 monolayer, overnight incubation, 2 mM or 5 mM peptide; FIG. 5
Experimental: Caco-2 cells were grown on polycarbonate transwell filters (12 mm diameter, 0.4 μm pore size; Costar) in same media as HEK 293 cells) until a fully polarized monolayer was obtained as determined by resistance measurements. The live cells were then incubated overnight with amino terminally, fluorescein (FAM) coupled peptides: (A) 2 μM of ATQITWV (SEQ ID NO:214), (B) 2 μM ATQITWA (SEQ ID NO:215) or (C) 5 μM ASKITWV (SEQ ID NO:216) added into the media of the lower transwell chamber. The cells were then washed with Hanks Balanced Salt Solution (HBSS) with 1.8 mM CaCl2, fixed with ice cold methanol, permeabilized with 0.25% Triton X-100 in PBS, blocked with 5% donkey serum in PBS and stained with 1.5 μg monoclonal anti-γ-catenin antibody. The basolateral marker protein γ-catenin was visualized using Cy3-conjugated donkey anti-mouse antibodies (Jackson Immunolabs), diluted 1:1000. Processed filters were excised with a razor and mounted between a slide and coverslip with Vectashield mounting medium (Vector Labs; Burlingame, Calif.). Images were taken on a Leica confocal microscope using a 63X oil immersion objective.
Caco-2 cells were grown on polycarbonate transwell filters until a fully polarised monolayer was obtained. The live cells were then incubated overnight with the fluorescein (green) coupled peptides: (A) 2 mM of ATQITWV (SEQ ID NO:214), (B) 2 mM ATQITWA (SEQ ID NO:215) or (C) 5 mM ASKITW (SEQ ID NO:221) (FIG. 5). The cells were then fixed and counterstained with antibodies against the protein γ-catenin (FIG. 5). […] Substitution of A for V at the peptide carboxyl terminus should disrupt the interaction of a ligand with its cognate PDZ binding partner.

MAGI-3 PDZ 3 = molecular target: T1, MAGI-3 PDZ 3 (Homo sapiens, UniProt Q5TCQ9); assay: Biotinylated peptide pull-down of PDZ domains from HEK 293 cell extracts; assay type: binding; details: GST fusion, FIG. 4
T1 construct: PDZ 3; aa; expressed in transfected cells; host or cells: HEK 293
T1 sequence (Q5TCQ9 741-840 isoform Q5TCQ9-2): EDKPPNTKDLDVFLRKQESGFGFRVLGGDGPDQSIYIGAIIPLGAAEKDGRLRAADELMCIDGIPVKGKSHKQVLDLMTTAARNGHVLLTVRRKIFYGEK
Experimental: (§1) HEK 293 (293) cells grown in high glucose Dulbeco's Modified Eagle Medium (DMEM), 10% fetal calf serum, 1× non-essential amino acid supplement, 1×L-glutamine supplement, 10 mM HEPES (pH 7.4) and penicillin/streptomycin (all from Life Technologies) to ˜80% confluence were transfected with 2 μg DNA/35 mm diameter well (for example, DNAs encoding the sequences described in EXAMPLE 5.0) using Fugene reagent (Roche Biochemical). 24 hours post-transfection, cells were washed once with PBS and then scraped into 1 ml/well of 20 mM Tris (pH 7.5), 1% Triton X-100, 200 mM NaCl, 1 mM dithiothreitol, and protease inhibitor cocktail with EDTA (Roche Biochemical, catalog #1836145) and homogenized gently with three to five strokes in a dounce (Wheaton) using a loose glass pestle. Extracts were centrifuged at 12,000 rpm in a tabletop centrifuge at 4° C. for 10 minutes; the supernatant was combined with an equal volume of homogenization buffer without NaCl to achieve a final salt concentration of 100 mM and frozen at −70° C. until use. […] Binding of 293 cell-expressed proteins was detected by immunoblot analysis using antibodies against GFP (Clontech) and Her 2 (Santa Cruz Biotechnology). […]

MAGI 3 PDZ2 = molecular target: T2, MAGI 3 PDZ2 (Homo sapiens, UniProt Q5TCQ9); assay: as above; assay type: binding; parameters: PDZ 2; aa; expressed in transfected cells; host or cells: HEK 293; details: GST fusion, FIG. 4, FIG. 8
T2 sequence (Q5TCQ9 584-707 isoform Q5TCQ9-2): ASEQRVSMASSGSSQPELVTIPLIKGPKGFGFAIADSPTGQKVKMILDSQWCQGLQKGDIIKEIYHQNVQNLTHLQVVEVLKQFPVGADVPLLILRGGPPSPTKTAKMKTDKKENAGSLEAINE
Experimental: as §1, with “use. For peptide-pull-down experiments of MAGI-3 PDZ domains or the ERBIN PDZ domain, 100 μl of 293 cell extract was diluted to 400 μl in binding buffer (homogenization buffer modified to 100 mM NaCl) and incubated with 10 μM amino-terminally biotinylated peptide and 100 μl of strepavidin agarose (Sigma) for 2 hours on a rotator at 4° C. The beads were washed three times with 1 ml binding buffer and boiled in 60 μl of Laemmli's reducing sample buffer, of which 15 μl was loaded onto SDS-gels. PDZ domains co-precipitated with a given biotinylated peptide were visualized by immunoblot analysis using anti-GST (Genentech) or anti-GFP (Clontech) antibodies.” for “use.”

[1] = molecular target: GST-MAGI-3 PDZ 3 (aa. 741-840 of SEQ ID NO:200) (human) [GST: P08515]; assay: competition ELISA: peptide blocks GST-PDZ binding to immobilized peptide
[2] = molecular target: GST-MAGI-3 PDZ 3 (aa. 741-840 of SEQ ID NO:200) (human) [GST: P08515]; assay: competition ELISA
ERBIN PDZ domain = ERBIN PDZ domain (Homo sapiens, UniProt Q96RT1); assay: GST-PDZ co-precipitation of proteins from transfected HEK 293 cell extracts; assay type: binding; parameters: made in house; host or cells: E. coli; details: extracts from transfected HEK 293 cells; FIG. 6
Experimental: HEK 293 (293) cells grown in high glucose Dulbeco's Modified Eagle Medium (DMEM), 10% fetal calf serum, 1× non-essential amino acid supplement, 1×L-glutamine supplement, 10 mM HEPES (pH 7.4) and penicillin/streptomycin (all from Life Technologies) to ˜80% confluence were transfected with 2 μg DNA/35 mm diameter well (for example, DNAs encoding the sequences described in EXAMPLE 5.0) using Fugene reagent (Roche Biochemical). 24 hours post-transfection, cells were washed once with PBS and then scraped into 1 ml/well of 20 mM Tris (pH 7.5), 1% Triton X-100, 200 mM NaCl, 1 mM dithiothreitol, and protease inhibitor cocktail with EDTA (Roche Biochemical, catalog #1836145) and homogenized gently with three to five strokes in a dounce (Wheaton) using a loose glass pestle. Extracts were centrifuged at 12,000 rpm in a tabletop centrifuge at 4° C. for 10 minutes; the supernatant was combined with an equal volume of homogenization buffer without NaCl to achieve a final salt concentration of 100 mM and frozen at −70° C. until use. […] Binding of 293 cell-expressed proteins was detected by immunoblot analysis using antibodies against GFP (Clontech) and Her 2 (Santa Cruz Biotechnology).
Amino acids 1217-1371 of ERBIN and 584-707 corresponding to PDZ 2 of MAGI-3 (Sidhu et al., 2000); were expressed in E. coli as GST fusions. […] Equal volumes of extract and depleted extract (sup.) were analyzed.

[3] = molecular target: GST-MAGI-3 PDZ 2 (aa. 584-707 of SEQ ID NO:200) (human) [GST: P08515]; assay: competition ELISA
[4] = molecular target: GST-MAGI-3 PDZ 2 (aa. 584-707 of SEQ ID NO:200) (human) [GST: P08515]; assay: competition ELISA: peptide blocks GST-PDZ binding to immobilized peptide
[5] = molecular target: ERBIN PDZ-GST fusion protein (aa. 1217-1371 of SEQ ID NO:201) (human) [GST: P08515]; assay: competition ELISA: ERBIN PDZ-GST binding to immobilized biotin-PDZ 501
hZO1 PDZ1 = molecular target: T3, hZO1 PDZ1 (Homo sapiens, UniProt Q07157); assay: IC50 (nM) | hZO1 PDZ1 | 5 nM | B01-88 | Bio-GGWRWTTWL (SEQ ID NO: 684) | 36 nM
T3 construct: Human ZO1 (NM_003257) PDZ1; GST; made in house
Experimental: Table printed on a drawing sheet, FIG. 12A
Head of the field: IC50 (nM) | hZO1 PDZ1 | 5 nM | B01-88 | Bio-GGWRWTTWL (SEQ ID NO: 684) | 36 nM
The patent's description of the figure: FIG. 12. IC50 values indicating binding affinities of various peptides to PDZ domains
First copying reader's note: Upper left part of a table split over FIG. 12A-12D; further receptor columns and further peptides are on the other sheets.
Where the first naming reader finds the target: head: IC50 (nM) | hZO1 PDZ1 | 5 nM | B01-88

[6] = molecular target: T4, GST-MAGI-3 PDZ 2 (aa. 584-707 of SEQ ID NO:200) (human, UniProt P08515 1-218 = GST); assay: competition ELISA: peptide blocks GST-PDZ binding to immobilized peptide
[7] = molecular target: ERBIN PDZ-GST fusion protein (aa. 1217-1371 of SEQ ID NO:201) (human, UniProt P08515 1-218 = GST); assay: competition ELISA: ERBIN PDZ-GST binding to immobilized biotin-PDZ 501
[8] = molecular target: T4, GST-MAGI-3 PDZ 2 (aa. 584-707 of SEQ ID …); assay: competition ELISA

Chain of ERBIN PDZ-GST fusion protein (aa. 1217-1371 of SEQ ID NO:201) (P08515 whole entry, the tested form may be a part): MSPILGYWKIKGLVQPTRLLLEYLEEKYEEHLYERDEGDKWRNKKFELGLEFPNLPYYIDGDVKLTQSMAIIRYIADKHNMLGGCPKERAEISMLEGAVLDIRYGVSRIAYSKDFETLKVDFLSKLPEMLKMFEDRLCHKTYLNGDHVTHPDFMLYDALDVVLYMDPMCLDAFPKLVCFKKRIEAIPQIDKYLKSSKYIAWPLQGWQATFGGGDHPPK
Chain of GST-MAGI-3 PDZ 3 (aa. 741-840 of SEQ ID NO:200) (human) [GST: P08515] (P08515 whole entry, the tested form may be a part): as above
T4 sequence (P08515 whole entry, the tested form may be a part): as above
Chain of GST-MAGI-3 PDZ 2 (aa. 584-707 of SEQ ID NO:200) (human) [GST: P08515] (P08515 whole entry, the tested form may be a part): as above
Chain of ERBIN PDZ-GST fusion protein (aa. 1217-1371 of SEQ ID NO:201) (human) [GST: P08515] (P08515 whole entry, the tested form may be a part): as above
T3 sequence (Q07157 23-110): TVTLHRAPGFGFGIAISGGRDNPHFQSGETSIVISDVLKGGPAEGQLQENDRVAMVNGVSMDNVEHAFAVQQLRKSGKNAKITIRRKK
Chain of ERBIN PDZ domain (Q96RT1 1258-1412): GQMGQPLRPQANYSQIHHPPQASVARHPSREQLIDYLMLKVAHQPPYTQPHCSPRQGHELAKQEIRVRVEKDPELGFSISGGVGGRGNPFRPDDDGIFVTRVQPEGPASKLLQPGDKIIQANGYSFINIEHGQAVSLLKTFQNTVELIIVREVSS

## ASKITWV [amino terminally fluorescein (FAM) coupled peptide]
Caco-2 cells
  localization of fluorescein coupled peptide in live cells: localize apically on the lateral membrane to the tight junction

## ATQITKV [biotinylated peptide with W to K change at the (−1) position, reference compound]
MAGI-3 PDZ 3
  precipitation of MAGI-3 PDZ 3 from cell extracts by biotinylated peptide: did not bind
MAGI 3 PDZ2
  precipitation of MAGI-3 PDZ 2 from cell extracts by biotinylated peptide: did not bind

## TRWWFDI (peptide)
[1]
  IC50: 900 nM

## TRWWFDI-NH2 (peptide)
[2]
  fold reduction in binding affinity against the unamidated peptide: 300 fold
[1]
  IC50: 300000 nM

## Her 2: Her 2 receptor, a previously reported ligand for the ERBIN PDZ
ERBIN PDZ domain
  binding to / precipitation by GST-ERBIN PDZ: specifically precipitated

## VTWV (peptide)
[3]
  IC50: 4000 nM
[4]
  IC50: 4000 nM

## ATQITWV [derivative of the C-terminus of PTEN, K to W at (−1); used biotinylated or fluorescein coupled]
Caco-2 cells
  localization of fluorescein coupled peptide in live cells: localize apically on the lateral membrane to the tight junction
MAGI 3 PDZ2
  precipitation of MAGI-3 PDZ 2 from cell extracts by biotinylated peptide: efficiently precipitate only the PDZ domain that they were phage-selected against

## ATQITWA [V to A change at the (0) position; used biotinylated or fluorescein coupled]
Caco-2 cells
  localization of fluorescein coupled peptide in live cells: does not target to the tight junction
MAGI-3 PDZ 3
  precipitation of MAGI-3 PDZ 3 from cell extracts by biotinylated peptide: did not bind
MAGI 3 PDZ2
  precipitation of MAGI-3 PDZ 2 from cell extracts by biotinylated peptide: did not bind

## DVPV (peptide)
[5]
  IC50: > 400000 nM

## CSWV (peptide)
[3]
  IC50: 1000 nM
[4]
  IC50: 1400 nM

## Ac-WRWTTWV [13 | 01-31, SEQ ID NO: 652: N^AC-WRWTTWV]
hZO1 PDZ1
  IC50: 0.0443 nM

B1: DGICSWV (peptide)
peptide: DGICSWV
notes: synthetic peptide
[6]
  IC50: 300 nM

B2: ASKVTWV (peptide)
peptide: ASKVTWV
notes: synthetic peptide
[6]
  IC50: 800 nM

B3: DVPA (peptide)
peptide: DVPA
notes: also called DVPA ligand
[7]
  IC50: > 100000 nM

B4: TGWDTWV (peptide)
peptide: TGWDTWV
[7]
  IC50: 4500 to 5000 nM

B5: TGWETWV (peptide)
peptide: TGWETWV
notes: test peptide in solution
[7]
  IC50: 500 to 1000 nM

B6: ITKV (peptide)
peptide: ITKV
notes: also called MAGI 3 PDZ2 domain "naturally-selected" ligand
[8]
  IC50: 200000 nM
